Tests used:
[1] = molecular target: T1, StBEL-05 (Solanum tuberosum); assay: cell_activity; conditions: tobacco protoplasts, GUS reporter
T1 chain: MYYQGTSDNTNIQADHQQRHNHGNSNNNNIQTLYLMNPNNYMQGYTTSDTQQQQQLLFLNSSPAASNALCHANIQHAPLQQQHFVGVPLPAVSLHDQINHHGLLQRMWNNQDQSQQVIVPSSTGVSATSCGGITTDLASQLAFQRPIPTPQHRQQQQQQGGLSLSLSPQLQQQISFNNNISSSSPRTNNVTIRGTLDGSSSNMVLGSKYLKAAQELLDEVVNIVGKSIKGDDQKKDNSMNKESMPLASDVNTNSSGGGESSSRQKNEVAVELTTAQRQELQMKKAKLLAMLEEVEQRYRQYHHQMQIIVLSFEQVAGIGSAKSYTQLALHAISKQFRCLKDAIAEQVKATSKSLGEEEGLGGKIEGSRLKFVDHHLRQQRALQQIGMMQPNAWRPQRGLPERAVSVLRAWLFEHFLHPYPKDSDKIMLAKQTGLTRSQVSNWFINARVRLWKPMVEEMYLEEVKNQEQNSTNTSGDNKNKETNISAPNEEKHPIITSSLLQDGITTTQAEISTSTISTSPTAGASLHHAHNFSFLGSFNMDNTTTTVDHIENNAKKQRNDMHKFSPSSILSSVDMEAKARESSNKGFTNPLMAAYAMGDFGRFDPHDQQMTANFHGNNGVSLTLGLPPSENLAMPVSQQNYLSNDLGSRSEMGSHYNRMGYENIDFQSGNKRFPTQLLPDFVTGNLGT

[2] = molecular target: T2, POTH1 (Solanum tuberosum); assay: cell_activity; conditions: tobacco protoplasts, GUS reporter
T2 chain: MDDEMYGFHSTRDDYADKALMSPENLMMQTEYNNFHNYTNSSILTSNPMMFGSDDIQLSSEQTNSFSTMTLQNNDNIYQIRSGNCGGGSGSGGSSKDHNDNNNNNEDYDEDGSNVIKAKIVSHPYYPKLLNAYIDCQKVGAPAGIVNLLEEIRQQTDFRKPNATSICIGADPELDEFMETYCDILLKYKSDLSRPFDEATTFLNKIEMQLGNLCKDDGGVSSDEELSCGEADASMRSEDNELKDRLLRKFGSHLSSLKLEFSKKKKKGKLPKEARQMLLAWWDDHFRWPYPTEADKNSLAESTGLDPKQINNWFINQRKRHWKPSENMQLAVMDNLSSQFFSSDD

[3] = molecular target: T3, StBEL-05/POTH1 heterodimer (Solanum tuberosum); assay: cell_activity; conditions: tobacco protoplasts, GUS reporter
T3 chain 1: T1 chain
T3 chain 2: T2 chain

[4] = molecular target: POTH1 (full-length) in pBridge, fused to the GAL4 DNA-binding domain (Solanum tuberosum); assay: yeast two-hybrid, quantitative beta-galactosidase assay; reference: full-length construct StBEL-05 (pAD-05)
[5] = test system: ga20ox1 promoter; assay: Transcription (transfection) assay, pGAOP::GUS reporter in tobacco protoplasts; assay type: cell-based, potato
Text: The cauliflowermosaic virus (CaMV) 35S promoter in pBI221 (Clontech, Palo Alto, Calif.) was replaced by an enhancer fragment (−832 to −50) of the 35S promoter plus 980 bp of the ga20ox1 promoter to generate the pGAOP::β-glucuronidase (GUS) reporter construct. With this construct, the reporter GUS transcription level is augmented but its transcription may still be affected by the ga20ox1 promoter. A CaMV 35S promoter-driven luciferase (LUC) construct 35S-LUC (obtained from Dr. Takahashi, Dept. of Biological Sciences, Graduate School of Science, Univ. of Tokyo, Japan) was used as an internal control. Effector constructs were also generated by using pBI221 vector as a backbone, with the GUS gene replaced by the full-length cDNAs of either StBEL-05 or POTH1, downstream of the CaMV 35S promoter. Truncated cDNAs that encode the N-terminal protein-binding domains of StBEL-05 or POTH1 were used to generate the dominant negative constructs, StBEL5ΔC295 and POTH1ΔC122, respectively. The reporter construct with the mutated promoter was generated by site-directed PCR mutagenesis with oligos 5′-CTATTTGACTTC*ACACGGTTATTT-3′ (SEQ ID NO:23) and 5′-AAATAACCGTGTG*AAGTCAAATAG-3′ (SEQ ID NO:24).
Fully expanded leaves from three- to four-week-old tobacco plants were excised and placed in K3 basal media (Kao et al., “Nutritional Requirements for Growth of Vicia hajastana Cells and Protoplasts at a Very Low Density in Liquid Media,” Planta 126:105-110 (1975), which is hereby incorporated by reference in its entirety) supplemented with 0.4 M sucrose, 0.25% (w-v) cellulases (Karlan Research Products, Santa Rosa, CA), and 0.05% (w-v) macerases (Calbiochem, La Jolla, Calif.) and incubated for overnight at 28° C. After incubation, the liberated protoplasts were filtered through sterile cheesecloth into a Babcock bottle, and centrifuged for 10 minutes at 1000 rpm. Protoplasts were collected from the bottleneck area and washed once in K3 media with 0.4 M sucrose and resuspended in K3 media containing 0.4 M glucose to a final concentration of 4×10^6 protoplasts per milliliter. […]
Luciferase assays were performed by injecting 100-μL luciferase substrate (Promega, Madison, Wis.) into 20 μL of extract and measuring the emitted photons for 15 seconds in a TD-20 luminometer (Turner Designs, Sunnyvale, Calif.). […] A fluorescence multiwell plate reader, Fluoroskan II (MTX labs, Vienna, Va.), was used to measure GUS activity at 365 nm (excitation) and 455 nm (emission). Each sample was measured three times for both LUC and GUS activity. Relative GUS-LUC activity was calculated by dividing the ratio of GUS activity to LUC activity from different effectors with the ratio from reporter plasmid alone. Relative activities calculated from three transfection replications were presented as a mean±SE.

[6] = test system: ga20ox1 promoter regions P1, P2, P3 and first intron; assay: Gel retardation (gel mobility shift) assay; assay type: binding, potato; conditions: recombinant protein from E. coli
Text: The first intron with partial flanking exon sequence (450 bp) of potato ga20ox1 and its promoter (981 bp, provided by Dr. Salomé Prat, CSIC Cantoblanco Campus, Univ. of Madrid, Spain) were used for gel mobility shift assays. Polymerase chain reaction (PCR) was used to amplify three regions of the promoter: −981 to 636 (P1), −660 to 307 (P2), and −331 to 0 (P3). About a 25-bp overlap was maintained between P1 and P2 or P2 and P3 in the chance that the protein-binding site would span the overlapped region. The first intron of this gene was amplified from potato genomic DNA by using PCR and the oligos 5′-[…]-3′ (SEQ ID NO:21) and 5′-[…]-3′ (SEQ ID NO:22) as primers. These primers were designed based on the site of the first intron of the tobacco GA20 oxidase gene Ntc12. The four fragments were purified on a 1.4% agarose gel and labeled with α^32P-dATP using Klenow fragment. […]
In the competition assays, unlabeled double-stranded DNA fragments (10×, 25×, 50×, 100×) were incubated with the recombinant protein before the addition of the radioactive probe. The dissociation rates were determined by adding 500-fold more cold DNA fragments to the DNA-binding reactions that were being incubated on ice, and loaded onto the running gel every 10 minutes. […]

[7] = test system: CaMV 35S promoter; assay: Transcription (transfection) assay, 35S GUS construct in tobacco protoplasts; assay type: cell-based, cauliflower mosaic virus
[8] = test system: POTH1; assay: Yeast two-hybrid interaction with POTH1 (nutritional selection, beta-galactosidase); assay type: cell-based, potato; conditions: yeast strain AH109, nutritional markers and lacZ
Text: The Matchmaker two-hybrid system (Clontech, CA) was used for the yeast two-hybrid screen. Yeast transformation and plasmid rescue into DH5-a E. coli cells were according to the manufacturer's instructions. Full-length POTH1 was cloned into the pBridge (Clontech, CA) vector and used as bait to screen the potato (S. tuberosum ‘Desireé’) stolon cDNA library in pAD-GAL4-2.1 (Stratagene, Calif.). Positive interactions were confirmed by cotransforming yeast strain AH109 with each purified pAD plasmid and pBridge: POTH1 and plating on -leucine/-tryptophan (transformation control) and -leucine/-tryptophan/-histidine/-adenine (selection) nutrient medium. Induction of the AH109 reporter gene, lacZ, was measured with a yeast β-galactosidase assay kit (Pierce Chemicals). β-galactosidase activity (FIG. 9B) was determined from a known density of yeast cells and calculated as 1000×OD420/time of color reaction (minutes)×volume of yeast culture (ml)×OD600.
The StBEL-05 deletion constructs were amplified by PCR, then cloned into the vector, pGAD, in-frame with the GAL4 activation domain. POTH1 deletion constructs were amplified by PCR, and cloned into pBridge (Clontech) in-frame with the GAL4 binding domain. Sequencing of selected cDNAs and constructs was performed at the Iowa State University DNA Facility. For deletion analysis, modified constructs of POTH1 were cloned into the pBridge vector for fusion with the DNA-binding domain of GAL4 (FIG. 10A). For StBEL-05, constructs were cloned into the pGAD vector for fusion with the activating domain of GAL4 (FIG. 10B). Deletion constructs were made from both the amino and carboxy termini. These mutants were then tested for interaction in the yeast two-hybrid system by cotransforming into yeast strain AH109 with the corresponding full-length partner (StBEL-05 in pGAL4 or POTH1 in pBridge). All constructs were sequenced to verify that they were in-frame. Positive interactions were verified for lacZ induction by using a β-galactosidase assay (Pierce Chemical Company). For POTH1, seven deletion constructs were tested (FIG. 10A). For the BEL TFs, a fusion construct of StBEL-05 (653 aa of StBEL-05 sequence) and nine deletion constructs were tested (FIG. 10B).

ga20ox1 promoter reporter (980 bp)
activity [1]: > 50 % repression | activity [2]: > 50 % repression | activity [3]: 80 % repression

pAD5-1, StBEL-05 deletion construct in pGAD (GAL4 activation domain fusion)
decrease in the induction of the lacZ marker (beta-galactosidase activity) relative to the full-length construct, StBEL-05 [4]: 55%

B1: StBEL-05: BEL transcription factor from Solanum tuberosum, SEQ ID NO:2, 688 aa (protein, listed as Solanum tuberosum)
chain: T1 chain
decrease of relative GUS-LUC activity of the pGAOP::GUS reporter ([5]; co-transfected effector, tobacco protoplasts): more than half | repression of ga20ox1 promoter with point mutation in the binding site ([5]; mutated reporter construct): no detectable repression of promoter activity | binding to ga20ox1 regulatory regions [6]: retarded the mobility of all three promoter sequences and the first intron | effect on activity of the CaMV 35S promoter [7]: Neither StBEL-05 nor POTH1 showed any effect | interaction with POTH1 [8]: showed selective interaction
